Measured values reported in the supplement of paper PMC7125110.
± gives the standard error. Fewer inactive variants are shown than the library holds.

B1: glmS ribozyme (parent)
chain: AUAAAAGCGCCAGAACUACAGAAAUGUAGUUGACGAGGAGGAGGUUUAUCGAAUUUUCGGCGGAUGCCUCCAAA

How the values were obtained:
Conditions in all cases: with glucosamine-6-phosphate
glucosamine-6-phosphate [1] = variants of: B1; experiment: self-cleavage kobs at 160 uM GlcN6P; higher = faster cleavage; RNA array
In short: (§1)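 Sequenced MiSeq chips were the platform: E. coli RNA polymerase transcribed barcoded ribozyme variants on them in situ, and a hybridised Cy3 probe tracked these at 37 °C. After glucosamine-6-phosphate (40 μM to 10 mM) in HEPES/KCl/Mg(OAc)2 buffer was flowed in, tiles were imaged over ~14 h. Signals normalised to baseline and to non-cleaving reference variants were reduced to per-tile medians and fit to one- or two-exponential decays to obtain kobs. kcat and KM were derived through weighted Michaelis–Menten fits across concentrations.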

glucosamine-6-phosphate [2] = variants of: B1; experiment: self-cleavage kobs at 640 uM GlcN6P; higher = faster cleavage; RNA array
In short: as §1

glucosamine-6-phosphate [3] = variants of: B1; experiment: self-cleavage kobs at 2500 uM GlcN6P; higher = faster cleavage; RNA array
In short: as §1

glucosamine-6-phosphate [4] = variants of: B1; experiment: self-cleavage kobs at 10000 uM GlcN6P; higher = faster cleavage; RNA array
In short: as §1

Variant	self-cleavage kobs at 160 uM GlcN6P (glucosamine-6-phosphate [1])	self-cleavage kobs at 640 uM GlcN6P (glucosamine-6-phosphate [2])	self-cleavage kobs at 2500 uM GlcN6P (glucosamine-6-phosphate [3])	self-cleavage kobs at 10000 uM GlcN6P (glucosamine-6-phosphate [4])
G41C A52C C68U	< 1e-05 s⁻¹	–	–	–
G29U G37C A42C U46A	< 1e-05 s⁻¹	< 1e-05 s⁻¹	–	–
C16A G59A C70G	9.32e-05 ± 3.1e-05 s⁻¹	–	–	–
C10G G32C A48U C61G	< 1e-05 s⁻¹	< 1e-05 s⁻¹	–	–
G26U G29A U54A C70U C71U	0.000121 ± 3.5e-05 s⁻¹	–	5.37e-05 ± 2.3e-05 s⁻¹	–
A36C A52C C70U	< 1e-05 s⁻¹	< 1e-05 s⁻¹	–	–
G35C U65C G66A	< 1e-05 s⁻¹	< 1e-05 s⁻¹	< 1e-05 s⁻¹	–
A36C G66C	< 1e-05 s⁻¹	< 1e-05 s⁻¹	–	< 1e-05 s⁻¹
G43C U54A G60C	< 1e-05 s⁻¹	< 1e-05 s⁻¹	–	–
G44U G62A	< 1e-05 s⁻¹	< 1e-05 s⁻¹	< 1e-05 s⁻¹	–
A14U A36C A64U	< 1e-05 s⁻¹	< 1e-05 s⁻¹	–	< 1e-05 s⁻¹
G13C A36U	< 1e-05 s⁻¹	< 1e-05 s⁻¹	< 1e-05 s⁻¹	< 1e-05 s⁻¹
A12G C34A C50A G60C	< 1e-05 s⁻¹	–	< 1e-05 s⁻¹	–
C11G G29U U69G	0.000155 ± 3.5e-05 s⁻¹	0.000133 ± 3.6e-05 s⁻¹	–	–
A6G A64G C67G	< 1e-05 s⁻¹	< 1e-05 s⁻¹	< 1e-05 s⁻¹	–
C8A C10G C34A	< 1e-05 s⁻¹	< 1e-05 s⁻¹	< 1e-05 s⁻¹	–
C10U A39U C67G	< 1e-05 s⁻¹	< 1e-05 s⁻¹	–	–
G7A G13A G37C U46G	< 1e-05 s⁻¹	–	< 1e-05 s⁻¹	–
C8G G13A U54A G62A	< 1e-05 s⁻¹	< 1e-05 s⁻¹	–	–
A39U G40C U46C	5.92e-05 ± 1.4e-05 s⁻¹	0.000338 ± 5.3e-05 s⁻¹	0.000277 ± 7.4e-05 s⁻¹	–
A33U C61G C70U	< 1e-05 s⁻¹	–	–	–
G7C A33C G59A	< 1e-05 s⁻¹	–	–	–
C8A C10U U31A	< 1e-05 s⁻¹	–	–	< 1e-05 s⁻¹
U49G G51C C61U G63A	< 1e-05 s⁻¹	–	–	–
A28G C70A	0.000126 ± 3.7e-05 s⁻¹	6.33e-05 ± 2.1e-05 s⁻¹	0.000497 ± 0.00012 s⁻¹	–
C50G G60A A64G	8.18e-05 ± 2.1e-05 s⁻¹	6.58e-05 ± 2.3e-05 s⁻¹	0.000134 ± 5.2e-05 s⁻¹	–
C8A A42U	< 1e-05 s⁻¹	< 1e-05 s⁻¹	–	–

Variant	self-cleavage kobs at 160 uM GlcN6P (glucosamine-6-phosphate [1])	self-cleavage kobs at 640 uM GlcN6P (glucosamine-6-phosphate [2])	self-cleavage kobs at 2500 uM GlcN6P (glucosamine-6-phosphate [3])	self-cleavage kobs at 10000 uM GlcN6P (glucosamine-6-phosphate [4])
C11G U31A U47G	< 1e-05 s⁻¹	–	–	–
C16A G35U G37U U65G	< 1e-05 s⁻¹	< 1e-05 s⁻¹	–	–
G13U A15U G44A	< 1e-05 s⁻¹	< 1e-05 s⁻¹	< 1e-05 s⁻¹	–
U31C U54C C67U	8.1e-05 ± 1.6e-05 s⁻¹	0.000176 ± 3.7e-05 s⁻¹	0.000804 ± 0.0002 s⁻¹	–
A15C U31C A39U A42C	< 1e-05 s⁻¹	–	–	–
G7A G38U G44C U49A A53U U56C	< 1e-05 s⁻¹	–	–	–
G13C G40U G59C	< 1e-05 s⁻¹	< 1e-05 s⁻¹	< 1e-05 s⁻¹	–
C8U G13U G43A C61G	< 1e-05 s⁻¹	–	–	–
A33U C50U C61A C68G C70U	0.000144 ± 4.4e-05 s⁻¹	0.000229 ± 6.4e-05 s⁻¹	–	–
G32A G44C G66A C68A	< 1e-05 s⁻¹	< 1e-05 s⁻¹	< 1e-05 s⁻¹	–
C34U A36G	< 1e-05 s⁻¹	< 1e-05 s⁻¹	< 1e-05 s⁻¹	–
A12C U31G U47A	0.000155 ± 5.6e-05 s⁻¹	0.000707 ± 0.00032 s⁻¹	–	–
C8A A36C A42C G66C C67A	< 1e-05 s⁻¹	–	< 1e-05 s⁻¹	–
G51A G66A	< 1e-05 s⁻¹	< 1e-05 s⁻¹	–	–
G7U U30G C34G	< 1e-05 s⁻¹	–	< 1e-05 s⁻¹	< 1e-05 s⁻¹
A39G G43U C58A	< 1e-05 s⁻¹	< 1e-05 s⁻¹	< 1e-05 s⁻¹	–
C10U G51A U55C	< 1e-05 s⁻¹	–	< 1e-05 s⁻¹	–
G7A C8A U49G	< 1e-05 s⁻¹	–	< 1e-05 s⁻¹	< 1e-05 s⁻¹
U31A G38A A42C	< 1e-05 s⁻¹	< 1e-05 s⁻¹	–	–
A52C G59U	< 1e-05 s⁻¹	< 1e-05 s⁻¹	< 1e-05 s⁻¹	< 1e-05 s⁻¹
G32A U56G	9.78e-05 ± 3.6e-05 s⁻¹	0.000151 ± 2e-05 s⁻¹	0.000254 ± 3.2e-05 s⁻¹	0.000906 ± 8.9e-05 s⁻¹
G43U G60U U69G	< 1e-05 s⁻¹	< 1e-05 s⁻¹	–	–
C10G C50G C67U	9.87e-05 ± 2.3e-05 s⁻¹	–	0.000267 ± 5.1e-05 s⁻¹	–
G43C G60C	< 1e-05 s⁻¹	< 1e-05 s⁻¹	< 1e-05 s⁻¹	–
U31G U49C C67U	< 1e-05 s⁻¹	–	–	–
G32U A42U	< 1e-05 s⁻¹	< 1e-05 s⁻¹	–	–
G41A G62C	< 1e-05 s⁻¹	< 1e-05 s⁻¹	< 1e-05 s⁻¹	–
